Data as given in PMC10957154.

Target: T1, DJ-1 (mouse (endogenous in mouse frontal cortex)), Q99LX0
T1 chain: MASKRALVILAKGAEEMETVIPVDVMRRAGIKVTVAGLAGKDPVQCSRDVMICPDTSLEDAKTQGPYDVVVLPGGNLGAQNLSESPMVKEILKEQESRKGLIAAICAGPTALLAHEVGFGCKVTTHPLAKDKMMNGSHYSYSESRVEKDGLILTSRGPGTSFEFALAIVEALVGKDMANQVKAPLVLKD
Assay: cross-linking
Settings: remark: other sources report otherwise

B1: DJ-1, Q99LX0 1-189 (natural protein)
chain: T1 chain
B1 was tested, and the stoichiometry N was 2.
